Like-named read-outs stand apart in the source and are kept apart here.
How the values were obtained:
[1] = biological target: the molecule itself; experiment: small angle neutron scattering
[2] = biological target: the molecule itself; experiment: small angle neutron scattering; remark: listed apart in the source

B1: 17H6 (other)
chain: MGHHHHHHHHHHSSGHIHMAAAQEAAAAQAAAQAEAAQAAQAAAQEAAAAQAAAQAEAAQAAQAAAQEAAAAQAAAQAEAAQAAQAAAQEAAAAQAAAQAEAAQAAQAAAQEAAAAQAAAQAEAAQAAQAAAQEAAAAQAAAQAEAAQAAQAGGYGGMG
stoichiometry N [1]: 266 ± 3 | stoichiometry N [2]: 171 ± 2

Source: PMC3769986 (Soft matter, 2011)
